Data set [1] deals with human umbilical vein endothelial cells (HUVECs). Description: Uptake of DiL-oxLDL by HUVEC cells (fluorescence microscope, flow cytometry). In kind it is cell-based. The conditions noted are these: 10 μg/ml DiL-oxLDL, 5 h. On the procedure:
Experimental materials: sDSS1 protein, DiL-oxLDL (Thermo Fisher technology, Article No.: L34358), human umbilical vein endothelial cell (HUVEC) (PromoCell, Article No.: C-12200).
Experimental method: HUVEC cells were inoculated into a 6-well plate with 300000 cells per well. After 24 h of adherence, 1.5 ml 10 μg/ml DiL-oxLDL was added, or 1.5 ml 10 μg/ml DiL-oxLDL was added together with 2 μg/ml, 5 μg/ml, 10 μg/ml or 20 μg/ml of the sDSS1 protein. After incubation for 5 h in an incubator, the fluorescence signal in the cells was observed by a fluorescence microscope. The cells were digested with trypsin to form single cells for detecting the fluorescence intensity via flow cytometry.
A general note: In flow cytometry, cells or beads pass a laser one at a time.

In data set [2] the test system is Hep G2 cells. Description: Uptake of DiL-oxLDL by Hep G2 cells (fluorescence microscope, flow cytometry). The class given is cell-based, human. The note with it: 9 h. On the procedure:
(§1) Materials: sDSS1 protein, DiL-oxLDL, DiL-LDL (ThermoFisher, L3482), human hepatoma cell Hep G2 (Cell Bank of Typical Culture Preservation Committee of Chinese Academy of Sciences, Catalog Number: SCSP-510).
(§2) Experimental method: (1) When detecting the phagocytosis of oxLDL by Hep G2 cells, Hep G2 cells were inoculated into a 6-well plate with 250000 cells per well. After 12 h, all the cells were adhered. The old culture medium was discarded. 1.5 ml 10 μg/ml DiL-oxLDL was added, or 1.5 ml 10 μg/ml DiL-oxLDL was added together with 5 μg/ml and 50 μg/ml of the sDSS1 protein. After incubation for 9 h in the incubator, the fluorescence signal in the cells was observed by a fluorescence microscope. The cells were digested by trypsin to form single cells for detecting fluorescence intensity via flow cytometry. (2) When detecting the phagocytosis of LDL by Hep G2 cells, Hep G2 cells were inoculated into a 6-well plate with 250000 cells per well. After 12 h, all the cells were adhered. The old culture medium was discarded. 1.5 ml 10 μg/ml DiL-LDL was added, or 1.5 ml 10 μg/ml DiL-LDL was added together with 5 μg/ml and 50 μg/ml of the sDSS1 protein. After incubation for 10 h in the incubator, the fluorescence signal in the cells was observed by fluorescence microscope. The cells were digested by trypsin to form single cells for detecting fluorescence intensity via flow cytometry.

A short description of data set [3]: Toxic reaction in animal experiments. The class given is in vivo. The source says: The sDSS1 protein used in the following examples is produced and quality controlled by the company itself. Upon detection, the purity of the protein is more than 95%, and endotoxins (the content of endotoxins is less than 3 EU/mg protein) and other impurity residues meet the standards.

Data set [4] relates to macrophages differentiated from monocyte THP-1. Description: Phagocytosis of DiL-oxLDL by macrophages differentiated from THP-1 (fluorescence microscope, flow cytometry). The note with it: 10 μg/ml DiL-oxLDL, 5 h. In kind it is cell-based, human. On the procedure:
Experimental materials: sDSS1 protein, DiL-oxLDL, phorbol ester (PMA, Sigma Aldrich, Article No.: P1585), human monocyte THP-1 (Cell Bank of Typical Culture Preservation Committee of Chinese Academy of Sciences, Catalog No.: SCSP-567).
Experimental method: THP-1 cells were inoculated into a 6-well plate with 250000 cells per well, and the culture solution contained 100 ng/mL PMA. After being activated by PMA for 48 h, the cells were cultured in a fresh culture medium for 4 days to facilitate cell adhesion. The old culture medium was discarded. 1.5 ml 10 μg/ml DiL-oxLDL was added, or 1.5 ml 10 μg/ml DiL-oxLDL was added together with 2 μg/ml, 5 μg/ml, 10 μg/ml, or 20 μg/ml of the sDSS1 protein. After incubation for 5 h in an incubator, the fluorescence signal in the cells was observed by a fluorescence microscope. The cells were digested by trypsin to form single cells for detecting fluorescence intensity via flow cytometry.

Data set [5] relates to Hep G2 cells. The data set is described as follows: Uptake of DiL-LDL by Hep G2 cells (fluorescence microscope, flow cytometry). The note with it: 10 h. In kind it is cell-based, human. Here is the method: as §1, §2
[6] abbreviates: 50 μg/ml sDSS1 protein, 10 μg/ml DiL-LDL.

“Also recorded” adds a separate entry of the source.

B1: sDSS1 protein: sDSS1 protein produced by the company itself, purity more than 95%; sequence of human sDSS1 protein is SEQ ID NO:1 (protein, listed as Homo sapiens)
chain: MSEKKQPVDLGLLEEDDEFEEFPAEDWAGLDEDEDAHVWEDNWDDDNVEDDFSNQLRATVLLMILVCETPYGCYVLHQKGRMCSAFLCC
In the case of B1, the “Fluorescence within HUVEC cells (flow cytometry)” value in data set [1] (2 μg/ml sDSS1 protein) and in data set [1] (10 μg/ml sDSS1 protein) was “significantly weakened” each time. Further, the “Uptake of oxLDL by HUVEC cells (flow cytometry statistics)” value in data set [1] (2 μg/ml sDSS1 protein) was “reduced by half”. Also, the “Concentration dependence of the reduction of fluorescence / oxLDL uptake in HUVEC cells” value in data set [1] (2, 5, 10, 20 μg/ml sDSS1 protein) is listed as “concentration-dependent; also recorded: gradually weakened; also recorded: obviously dose-dependent”. Moreover, the “DiL fluorescence level within Hep G2 cells, DiL-oxLDL (flow cytometry)” value in the data set with Hep G2 cells [2] (5 μg/ml sDSS1, 10 μg/ml DiL-oxLDL) is “does not significantly affect; also recorded: did not significantly affect”. The “DiL signal intensity in Hep G2 cells, DiL-oxLDL (flow cytometry)” value with Hep G2 cells [2] (50 μg/ml sDSS1 protein, 10 μg/ml DiL-oxLDL) was “significantly increase”. In addition, the Animal toxic reaction entry in data set [3] is “without causing obvious animal toxic reaction”. The “Macrophages having fluorescence (flow cytometry)” value in data set [4] (2 μg/ml sDSS1 protein) and in data set [4] (10 μg/ml sDSS1 protein) was “not detected; also recorded: basically didn't appear” each time. In addition, the “Fluorescence in macrophages (fluorescence microscope)” value in data set [4] (sDSS1 protein added (2 and 10 μg/ml)) is listed as “no obvious fluorescence was observed in the cells, or the fluorescence was very weak; also recorded: basically no obvious fluorescent signals were observed”. Besides, the “Intensity of Dil fluorescence in Hep G2 cells, DiL-LDL (flow cytometry)” value is given as “basically consistent” in the data set with Hep G2 cells [5] (5 μg/ml sDSS1, 10 μg/ml DiL-LDL); “could not cause significant changes” in the data set on Hep G2 cells [5] (5 μg/ml sDSS1, 10 μg/ml DiL-LDL, listed as sDSS1); “basically consistent; also recorded: could not cause significant changes” with Hep G2 cells [5] (setting [6]). The “Quantity of Hep G2 cells uptaking DiL-LDL (fluorescence microscope)” value is reported as “not changed significantly” with Hep G2 cells [5] (5 μg/ml sDSS1 protein, 10 μg/ml DiL-LDL); “no significant difference” in the data set on Hep G2 cells [5] (5 μg/ml sDSS1 protein, 10 μg/ml DiL-LDL, listed as sDSS1); “not changed significantly” in the data set with Hep G2 cells [5] (setting [6]); “no significant difference” in the data set with Hep G2 cells [5] (50 μg/ml sDSS1 protein, 10 μg/ml DiL-LDL, listed as sDSS1).

For the origin of these results see US12433934B2, “Methods and compositions for preventing and treating atherosclerosis and related diseases” (Shanghai Puyou Biomedical Co., Ltd., priority 2018, dated 2025).
